Where a chain is given by its changes, count along the chain named.
T1: Hla
T1 chain: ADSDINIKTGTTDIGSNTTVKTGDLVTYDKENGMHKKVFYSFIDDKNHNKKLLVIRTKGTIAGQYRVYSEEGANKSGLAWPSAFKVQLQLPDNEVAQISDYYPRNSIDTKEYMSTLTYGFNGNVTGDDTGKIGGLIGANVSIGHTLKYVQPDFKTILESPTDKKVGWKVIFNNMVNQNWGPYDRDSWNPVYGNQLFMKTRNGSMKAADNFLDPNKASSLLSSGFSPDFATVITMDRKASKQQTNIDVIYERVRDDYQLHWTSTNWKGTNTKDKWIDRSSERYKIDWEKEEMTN

T2: HlgB
T2 chain: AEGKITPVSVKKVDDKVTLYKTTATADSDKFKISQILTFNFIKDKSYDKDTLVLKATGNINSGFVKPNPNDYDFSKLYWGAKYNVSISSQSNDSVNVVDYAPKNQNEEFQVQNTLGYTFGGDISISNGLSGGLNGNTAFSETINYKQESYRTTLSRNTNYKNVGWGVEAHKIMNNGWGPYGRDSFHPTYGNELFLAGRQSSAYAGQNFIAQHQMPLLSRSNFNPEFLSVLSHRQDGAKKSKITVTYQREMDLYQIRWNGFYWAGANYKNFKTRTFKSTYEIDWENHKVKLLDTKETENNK

T3: LukF
T3 chain: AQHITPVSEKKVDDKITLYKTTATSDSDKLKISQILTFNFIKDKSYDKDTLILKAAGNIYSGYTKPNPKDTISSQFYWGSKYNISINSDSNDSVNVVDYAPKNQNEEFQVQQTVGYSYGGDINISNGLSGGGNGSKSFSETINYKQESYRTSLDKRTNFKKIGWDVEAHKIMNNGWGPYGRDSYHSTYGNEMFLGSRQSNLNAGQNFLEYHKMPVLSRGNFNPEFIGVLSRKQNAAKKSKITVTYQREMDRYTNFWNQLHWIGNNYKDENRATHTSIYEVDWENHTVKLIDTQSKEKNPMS

T4: LukD
T4 chain: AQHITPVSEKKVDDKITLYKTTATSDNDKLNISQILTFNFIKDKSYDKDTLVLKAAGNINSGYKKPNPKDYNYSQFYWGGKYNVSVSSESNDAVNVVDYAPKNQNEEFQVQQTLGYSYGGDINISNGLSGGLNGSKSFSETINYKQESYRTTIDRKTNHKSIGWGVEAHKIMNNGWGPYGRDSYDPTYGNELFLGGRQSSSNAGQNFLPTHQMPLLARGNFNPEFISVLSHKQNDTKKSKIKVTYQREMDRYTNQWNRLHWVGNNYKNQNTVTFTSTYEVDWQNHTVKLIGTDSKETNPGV

B1: AB-28-6 (antibody, V domains shown)
VH: QVQLQESGPGLVRPSETLSLTCAVSGYSISSGMGWGWIRQPPGKGLEWIGSIDQRGSTYYNPSLKSRVTISVDTSKNQFSLKLSSVTAADTAVYYCARDAGHAVDMDVWGKGTTVTVSS
VL: DIQMTQSPSSVSASVGDRVTITCRASQGISRWLAWYQQKPGKAPKLLIYAASSLQSGVPSRFSGSGSGTDFTLTISSLQPEDFATYYCQQGYVFPLTFGGGTKVEIK
B2: AB-28-13 (antibody, V domains shown)
VH: B1 VH with R13K, G36D, K65E, S66G, V68A, A103G
VL: B1 VL
B3: AB-28-4 (antibody, V domains shown)
VH: B1 VH with R13K, S28P, S51R, V68A, A103G
VL: B1 VL
B4: AB-28-12 (antibody, V domains shown)
VH: B1 VH with R13K, G36D, L46R, K65E, S66G, A103G
VL: B1 VL
B5: AB-28-3 (antibody, V domains shown)
VH: B1 VH with R13K, I52V, A103G, V104A
VL: B1 VL
B6: AB-28-10 (antibody, V domains shown)
VH: B1 VH with R13K
VL: B1 VL
B7: AB-28-9 (antibody, V domains shown)
VH: B1 VH with Q1E
VL: B1 VL
B8: AB-28 (antibody, V domains shown)
VH: B1 VH with R13K, A103G
VL: B1 VL
B9: AB-28-11 (antibody, V domains shown)
VH: B1 VH with R13K, G36D, K65E, S66G, A103G
VL: B1 VL
B10: AB-28-5 (antibody, V domains shown)
VH: B1 VH with R13K, S51R, I52V, A103G
VL: B1 VL
B11: AB-28-8 (antibody, V domains shown)
VH: B1 VH with R13K, G36D, S63P, K65E, A103G
VL: B1 VL
B12: AB-28-7 (antibody, V domains shown)
VH: B1 VH with R13K, G36D, L46R, K65E, S66G, V68A, A103G
VL: B1 VL

Molecular target: T1, Hla
Test: not given

Binder	Kd [pM]
B1	< 2
B2	< 2
B3	23
B4	< 2
B5	37
B6	< 2
B7	< 2
B8	< 2
B9	< 2
B10	30
B11	< 2
B12	< 2

Molecular target: T2, HlgB
Test: MSD solution equilibrium; Fab

Binder	Kd [pM]
B1	2.5
B2	3
B3	140
B4	< 2
B5	18
B6	6
B7	5
B8	5
B9	3
B10	160
B11	2
B12	< 2

Molecular target: T3, LukF
Test: MSD solution equilibrium; Fab

Binder	Kd [pM]
B1	16
B2	89
B4	63
B5	< 3
B6	17
B7	130
B8	130
B9	71
B11	46
B12	52

Molecular target: T4, LukD
Test: MSD solution equilibrium; Fab

Binder	Kd [pM]
B1	400
B2	790
B3	86
B4	460
B5	1700
B6	450
B7	2200
B8	2200
B9	1200
B10	160
B11	780
B12	290
